# Experimental data published in the DeepSol protein solubility set.
# Test: soluble on expression in E. coli; label from the status in PepcDB or PDB records
row,Sequence,soluble on expression in E. coli
1,KEATWVTDKPLTLKIHMHFRDKWVWDENWPVAKESFRLTNVKLQSVANKAATNSQEQFNLMMASGDLPDVVGGDNLKDKFIQYGQEGAFVPLNKLIDQYAPHIKAFFKSHPEVERAIKAPDGNIYFIPYVPDGVVARGYFIREDWLKKLNLKPPQNIDELYTVLKAFKEKDPNGNGKADEVPFIDRHPDEVFRLVNFWGARSSGSDNYMDFYIDNGRVKHPWAETAFRDGMKHVAQWYKEGLIDKEIFTRKAKAREQMFGGNLGGFTHDWFASTMTFNEGLAKTVPGFKLIPIAPPTNSKGQRWEEDSRQKVRPDGWAITVKNKNPVETIKFFDFYFSRPGRDISNFGVPGVTYDIKNGKAVFKDSVLKSPQPVNNQLYDMGAQIPIGFWQDYDYERQWTTPEAQAGIDMYVKGKYVMPGFEGVNMTREERAIYDKYWADVRTYMYEMGQAWVMGTKDVDKTWDEYQRQLKLRGLYQVLQMMQQAYDRQYKN,soluble
2,MGQMADRLAALVVTAFSPDGQIEGSYGAAAGANIRFNGNSYRHYTERGLGHQLSRMAVLVWIAHQRGHDATVAEVTGQPVSRRQETWDARRRRFREEQAETESEGMSTGGLVYFRNTGMRDWHIVIRDGTLSKLDEPEFVKEFLSGYAALSLDYRHKMTKLRTKHYGPDIWMKK,not soluble
3,MEIERRLVLEVVRVTEQAALAASRFAGKGDKEAVDEAGTQAMRRVLNELPIRGTVVIGEGEMDEAPMLYIGEVLGQGGLEVDIAVDPVEGTTTVAKGLPNAVTVIALSEKGGLFHAPDMYMEKLIVPPSAVGLVDLTWPVSVNLRALALALQRSVEDLVVVVLEPPRHERLIREIRKAGAPVKLISDGDVIAALAAAIRGTGVHAVMGIGGAPEGVLTAAALKCLGGEIQARFVPQNEEERERLKAMGGDEHRIYKTEDLAPGKEIVFAATGITDGDILEGVRFFGGGARTHSIVMGHATRVVRFIDSIHLFETGARVTIRV,soluble
4,MKQIKWWLLAVLLVVGLTGCGSQTTKKQATQQAASTKKISPYVNQQTPTFYVHGFQGSAKSTNTLIAHAEKTAHAHKVLVATVSTSGQVTLTGKWRGRVRNPIIQVVFKNNLAQYDQQSAWLAKVITTVQQQHAFKHYNIVAHSAGCVASVNMLMTQQTTTFPKINKLVTIAGPFDGVVGEDDVANQNSFLTSGQPKYLHAAYELLAAKRNNFPKNVQLLNIVGTLNDGSHSDSLVTNVSARSIKYLLRGRDVDYTEKDFYGAHAQHSQLHENAKVALAVDRFLWHR,not soluble
5,MSLIYGFIRDHSNEFAVEKMCQVLNVSRSGYYSWLNRKPGKRELTNKKLKLKIAEIYWQTRGRCGSPRIHKQLKKEGYHYNIKRIERLMRIMGLKAIQKRKFKRTTNSDNNLPLKNNLLKRNFSVTQPDKVWVSDITYIPTKEGWLYLSVVIDLYSRKVVGWSMDNHMTKRLVIDALEMAVLNRNPSRGLIFHSDRGSQYASHDFQKTLWKYGIISSMSRKGDCWDNAVAESFFATLKTELIFHNKYQSRAQAKRDIFEYIEIFYNRIRLHSSLDYKSPEDYEKERKTSKEGHHHHHH,not soluble
6,GPMPQLTLDKTDIKILQVLQENGRLTNVELSERVALSPSPCLRRLKQLEDAGIVRQYAALLSPESVNLGLQAFIRVSIRKAKDAREDFAASVRKWPEVLSCFALTGETDYLLQAFFTDMNAFSHFVLDTLLSHHGVQDAQSSFVLKEIKHTTSLPLNHLLKE,soluble
7,MSVIKLKSKLKYCHYAYDDEGYVIHMLTSNERTFFTNAYIIETKNSIVVVDTLMVNSDAILLRQYMDNINKPLIAVIITHGHPDHYNGTEIITGFKEVPIISTKGIRDCIQDTVDSKEVKWKPYFGQDWPEHKILPNQLVIDSEVVNLDGLDYSFRDLGAAESSSDLFFTLGEKRSVIFVGDVVFNNMHGFMNDGNSAQWLKVLQKLLTEIADVKLLFTGHGDPGDTHQLVQRQIDYISHYRSNLLAIIRGNQLEHHHHHH,not soluble
8,MSEKTFLVEIGTEELPPKALRSLAESFAANFTAELDNAGLAHGTVQWFAAPRRLALKVANLAEAQPDREIEKRGPAIAQAFDAEGKPSKAAEGWARGCGITVDQAERLTTDKGEWLLYRAHVKGESTEALLPNMVATSLAKLPIPKLMRWGASDVHFVRPVHTVTLLLGDKVIPATILGIQSDRVIRGHRFMGEPEFTIDNADQYPEILRERGKVIADYEERKAKIKADAEEAARKIGGNADLSESLLEEVASLVEWPVVLTAKFEEKFLAVPAEALVYTMKGDQKYFPVYANDGKLLPNFIFVANIESKDPQQIISGNEKVVRPRLADAEFFFNTDRKKRLEDNLPRLQTVLFQQQLGTLRDKTDRIQALAGWIAEQIGADVNHATRAGLLSKCDLMTNMVFEFTDTQGVMGMHYARHDGEAEDVAVALNEQYQPRFAGDDLPSNPVACALAIADKMDTLAGIFGIGQHPKGDKDPFALRRAALGVLRIIVEKNLNLDLQTLTEEAVRLYGDKLTNANVVDDVIDFMLGRFRAWYQDEGYTVDTIQAVLARRPTRPADFDARMKAVSHFRTLDAAAALAAANKRVSNILAKSDEVLSDRVNASTLKEPEEIKLAMQVVVLRDKLEPYFTEGRYQDALVELAELREPVDAFFDKVMVMVDDKELRINRLTMLEKLRELFLRVADISLLQ,soluble
9,MGLLAHFLKGPHKKTTLLLTRAGPVENPRHVLYSHPGLPLSPKGRSALLALLPLLQGFPVAHVYAADSLAEAEAARLFAEALGVPYTLLPELRERAWGAWEGLSFPEVEARFPGAVAAWTADEAGFAPPGGESVREAWERGRRAVKALLGKHRGQAILVVGNCTLNRAALSLALPLPPEEGLRLEQDYARLSVVDFYGEEGVVKALNLAVDWGHDPARGPQGPPGAS,soluble
10,MLISKVIKKQFAQETIENVHIAKGTAMFQGVRLTVRCFVIDGVLIDTGAKSMENEFTSFFQQQDIDQVVITHFHEDHTGCAAFLQRKMGLPIYMNELMIHYCQQKADYPLYRKVFWGKRDPFTAKPIGATFSSRSATWDVIPTPGHSIDHVAFLNRETGQLFSGDLYCQEKTKVILREENIPAIITSLQHVLTYDFGDVFCAHAGYLPNGREALQRKLDYLLELQGTIIDLYEKGTPPKQIQALLFPKKYPIVFFSGGEWDSLHIIRSVIQEYETKQAG,not soluble
11,GPLGSMQLKPMEINPEMLNKVLSRLGVAGQWRFVDVLGLEEESLGSVPAPACALLLLFPLTAQHENFRKKQIEELKGQEVSPKVYFMKQTIGNSCGTMGLIHAVANNQDKLGFEDGSVLKQFLSETEKMSPEDRAKCFEKNEAIQAAHDAVAQEGQCRVDDKVNFHFILFNNVDGHLYELDGRMPFPVNHGASSEDTLLKDAAKVCREFTEREQGEVRFSAVALCKAA,soluble
12,MSLYPDDSLTLHTDLYQINMMQVYFDQGIHNKKAVFEVYFRQQPFKNGYAVFAGLERIVNYLEDLRFSDSDIAYLESLGYHGAFLDYLRNFKLELTVRSAQEGDLVFANEPIVQVEGPLAQCQLVETALLNIVNYQTLVATKAARIRSVIEDEPLMEFGTRRAQEMDAAIWGTRAAVIGGANGTSNVRAGKLFDIPVLGTHAHALVQVYGNDYEAFKAYAATHKNCVFLVDTYDTLRIGVPAAIQVARELGDQINFMGVRIDSGDIAYISKKVRQQLDEAGFTEAKIYASNDLDENTILNLKMQKAKIDVWGVGTKLITAYDQPALGAVYKIVAIEDETGQMRNTIKLSNNAEKVSTPGKKQVWRITSREKGKSEGDYITYDGVDISYMTEIKMFHPTYTYIKKTVRNFDAVPLLVDIFKEGILVYNLPSLTDIQDYARKEFDKLWDEYKRVLNPQHYPVDLARDVWQDKMDLIDKMRKEALGEGEEEEGHHHHHH,soluble
13,MSDVSTSVQSKFARLAKKKENITYMKREQLTETDKDIAPVLDLKCKDVSAIMNKFKVLMEIQDLMFEEMRETLKNDLKAVLGGKATIPEVKNSENSSSRTEFQQIINLALQKTGMVGKIEGENSKIGDDNENLTFKLEVNELSGKLDNTNEYNSNDGKKLPQGESRSYEVMGSMEETLCNIDDRDGNRNVHLEFTERESRKDGEDEFVKEMREERKFQKLKNKEEVLKASREEKVLMDEGAVLTLAADLSSATLDISKQWSNVFNILRENDFEPKFLCEVKLAFKCDGEIKTFSDLQSLRKFASQKSSMKELLKDVLPQKEEINQGGRNYGIQEKRDKTLIDSKHRAGEITSDGLSFLFLKEVKVAKPEEMKNLETQEEEFSELEELDEEASGMEDDEDTSGLEEEEEEPSGLEEEEEEEASGLEEDEASGLEEEEEQTSEQDSTFQGHTLVDAKHEVEITSDGMETTFIDSVEDSESEEEEEGKSSETGKVKTTSLTEKKASRRQKEIPFSYLVGDSGKKKLVKHQVVHKTQEEEETAVPTSQGTGTPCLTLCLASPSKSLEMSHDEHKKHSHTNLSISTGVTKLKKTEEKKHRTLHTEELTSKEADLTEETEENLRSSVINSIREIKEEIGNLKSSHSGVLEIENSVDDLSSRMDILEERIDSLEDQIEEFSKDTMQMTKQIISKERQRDIEERSRSCNIRLIGIPEKESYENRAEDIIKEIIDENFAELKKGSSLEIVSACRVPSKIDEKRLTPRHILVKFWNSSDKEKIIRASRERREITYQGTRIRLTADLSLDTLDARSKWSNVFKVLLEKGFNPRILYPAKMAFDFRGKTKVFLSIEEFRDYVLHMPTLRELLGNNIP,soluble
14,MKEKGGDSLKYCYQCGLCDSVCPWNRVRQFSMRKIVRQGTFGLTEIEQEDIWRCSTCGTCPSRCPRGVNQIEAGVAMRRIGAEYDVYPGHVGTIRNVVASLTSEGNSLEHHHHHH,not soluble
15,MSLTPLPYECQKCVLQFFEANRRFKLVERCDSLKAADKAAPLHIYKLYMNPRVIRINRHRYTLGLLRHLPKDHVYYSPYINNVNLDGGAAYDMDQYGLKDPRCNEVLSPGDLKVESKEKINNMEDMTMEMLQFAMRDFIRPQGRMQVQQREDPESSSEDDEDEAEDLPAEGSDDEDDDPQEAQIRRILGDAYLPRARYSSSESEASESEDEPDIDPAVTDQLEAYTNPYSWREENEPAPYRFGIRFQRMNLDFRRDRETFHGIIEYLDYNKKMYDAMKYITEKLFGKRAHPIVIKTLELGDAGGVYRLPENFKVKVSNMRFGTEFGLLWDGLNSIFHESTLPFKSLHMPLEHDHPVIHATQRLVIGTEKMFGENFAWIPFLLKLPQKNVYMLHSPLFHHDYVQLIDNWIETPKSIGTCFTFGVKQYHATQSTLNLLGDHPMVVSKRMEGVDCTEFPHCFNIPLTYESELNVYGKKRTENLDPLEFMPHVSWCLVFEVMPIGSALPLED,not soluble
16,MSLFRLVFVMDIFNRNVVLAKGGIRENYRPVSDSSAVCRTSDPLEILEILRPKEVYIADLNVLQGKGPLDMNAEIIREVSFKADTMLDSGVSSSKDVDRALSIAGTAVIGTETGTLEVIKDSISRNPGRISVSIDIKHGKLLKQDPKIPEDPFEIVKILNRLPLKDLIFLDLDRVGTASGFDPEFLRKLAESSAHDVLLAGGVRGMKDLFALDSLGIKGALVATAIHSGEVSPEVMTLGLKKEGHHHHHH,soluble
17,MATFPHFGTAAIHVGQEPEQWDMNQVVPPISLSSTYKQDNPGEPKGHDYSRAGNPTRDVLQKNLAALEDAKHCQVFSSGLAATSAIINLLKYGDHIVCSDDVYGGTQRYIRRVAVPNHGLEVDSVDLTDVQNLEKAIKPNTKMVWFESPSNPLLKVVDIAAVVQTAKKANPEIVVVVDNTFMSPYFQRPISLGADVVVHSITKYINGHSDVVMGAVITDNDEFQQHLFFMQLAVGAVPSPFDCFLVNRGLKTLHIRMRAHYENALAVAKYLEANDRIESVLYPALPSHPQHEVHEKQTKGMSGMISFYLKGELQESRAFLSALKVFTLAESLGGYESLAELPSIMTHASVPAETRIVLGITDNLIRISVGIEDLDDLVADLDQALKIAIPKV,not soluble
18,MIAPQPPMHLSGRCVCPSDPQFVEEKGIQAEDLVIGALENAFQECDDVIGRELEASGQVGGCTALVAVFLQGKLYVANAGDSRAILVRRHEIRQLSSEFTPETERQRIQQLAFTYPELLAGEFTRLEFPRRLKGDDLGQKVLFRDHHMRGWSYKRVEKSDLKYPLIHGQGRQARLLGTLAVSRGLGDHQLRVLDTDIQLKPFLLSIPQVTVLDVHQLAVQEEDVVVMATDGLWDVLSNEQVALLVRSFLTGNQKDDPHRFSELAKMLIHNTQGKDNGATGEGQVSYDDVSVFVIPLHSQAQEGSGH,soluble
